From the DeepSol protein solubility set

Experiment: soluble on expression in E. coli; label from the status in PepcDB or PDB records

Sequence | soluble on expression in E. coli
MGQIQYSEKYFDDTFEYRHVVLPPEVAKLLPKNRLLSENEWRAIGVQQSRGWVHYAVHRPEPHIMLFRRPLNYQQQQENQAQNMLVK | soluble
MGRDSPRDRRHRDRSPERRRRSRSRSRDRQTRRDTRRDDSPKIKREVKEEQFSDNDSPRRRRDDRGGRRDDRRDNRRDDRRDHRDDRGDRDRRDNFRRPDPVREDGKQYGLEKKEENWGKPEEPAKEKEKVNLGTSGALTEDTNTFRGVVIKYNEPPEAKKPNARWRLYPFKGEESLQVLYIHRQSAYLIGRDHKIADIPVDHPSCSKQHAVLQFRSMPFTRDDGTKARRIMPYIIDLGSGNGTFLNEKKIEPQRYIELQEKDMLKFGFSTREYVVMKEREITEEELAEGEDVKKEESD | not soluble
MGRLSEVFEVRERYVPQIGRPSYLLVSLPDAGLVGSISGEFLINYLNLREYGEIYSNKHLPPISHVVNGVAKSPIRLYHYDNFLLLHSWIAIPANSINHLANLVVSYAEKYGIQTIISITGVPVPNRLDLEKPTPYWVASSEDFAKELDSLNLMKKFVEGYVSGPYAPILFQSAKKLIRNLLIVVESFLDLPDPEAAAVALDILSKMLGFKVDTSSLLKEAEEIRERIKGLMQQTRQELPNYSGLRPSTYA | not soluble
MGRMHNPGKGMAKSAIPYRRSVPSWQKMTAEEVQDQIVKMAKKGLRPSQIGVILRDSHGVGQVRRLAGNKIFRILKSKGMAPELPEDLYHLVKKAVAIRKHLERSRKDIDSKYRLILVESRIHRLARYYKTKRQLPPTWKYESGTAASLVS | soluble
MGRSADSFDRALWWGASDEPALAAPPLRGTTDTDVAIVGGGFTGLVTALHLAEAGLAPLVLEARHVGFGASGRNGGQVIPGLKYDPEALLQKFGPDRGRALIDLVGGAADGVFDLIERHRIRCAPRRAGWIQAAHSERALPAVLNRARQWQERGVGVSILSRDEIAARTGTSLYHGGWHDPRAGGLNPLAYARGLGRAAIAAGAHLFEESPALSLIRKGAGWEIRTPEGLVRANRVLIATNAYGEGLLPGLAQSILPVQSMLVATAPLPEDLRARLMPGGVVLSETRKLAFYMRQSDDGRLVLGGRGAVGPMEDGRLMAALEAGLARIFPEAARFGIAQRWSGQLALTLDGLPHLHAPEPGLQVLLGYNGRGIALATALGRMVANHLASGEEPVFPVTPIRPLAWHRLREPVMNAGIRWYWLKDRMGFASLEHHHHHH | not soluble
MGSDKIHHHHHHAACEKDPDMDKLDNDYLVYTNYDKKADFKQFSTYYIPDSVLVIGDKKDPEYWKGEAAEAIINAYKENLNSKGFTYTDNKDAADLGIQVSYVQSTYYFTDYGQPEWWWNYPGYWDAPYWGNWGGWYYPYVVNYSITTNSFLTEIMNLKAPEGEKQKLPVLWSSFLSGPASYSGKVNQTLVVRAINQSFAQSPYLTNK | not soluble
MGSDKIHHHHHHADTFSVLAHELMHFVYPSGTELLTPNVTKAANKCTQDEVKMMGDSDAVKPIDGWFSKKVTHEDLANIMGLRMVMKMAAKKSVNEEQLKNALETILGGLCIQGKPKNSILPHHHPFEISINTAVRQYPLFSSLYGCRPGDRMFAEAEKFCNPLGGEVNLEDYKIKNDTEDIGGFFNYIMDTANAFNFSIEN | not soluble
MGSDKIHHHHHHAFTTGENDPFIKSPTVAKLTNTPNGPLISCDLKALKDTVNFPLSQLTEELQIVKLDNRDEALIGGWIRTTVGEKYILVSNNKQTPYKLFDRTGKFITNIGSYGQGPNEYLNTYAEQLDEANNRIYILPWQSSKILVFDLKGNALDPIPLCLRVPKGKFRVNTAKSEVTVTVLPFPKWPAVVWTQDLKGKRKNFVAPGSLAMPQDFSNEVSMGNNTAAYDVMLMKIMPQPSVDTLYHYNAASNKLEGRFTVKYPSNDKIPWHAYYEIPKYFIGDVSFPIQIDESTFSGSKPAYYMVDKKTLHGNYVRLYNDFISTPSQTIYPSFNNGYYVTNMEPMALKEILEKEVNKKGLTADKKKKVQNLIKTLNDNDNNIVMFAKLKQ | not soluble
MGSDKIHHHHHHAITVEENPNMMYMLVGSYATPEEEGIKVYNFDEQNGNSQYISGIKGISNPSFLIPSADGERIYAVGEDSGKSSTANAIKFDKEQKKLTLLNSQPTDGGAPCYITLSPSEKFVLTANYIGGSITVFPLDKDGKLKSETRLISFTGNSLDKERQTQPHLHCIEFTPDHKYLLASDLGTDQIHVFPVSENVTDGVSHSLLNESEEFNIKVESGSGPRHICFHPNQKFAYLINEISGKVIAFSYDKGKLNAIQYIEADTVGAKGSGDIHISPDGKFLYASNRLKADGIAIFSINQEEGTLTKTGYQLTGIHPRNFIISRNGRYLLVACRDSNSIQVFERDSQTGLLKDTGKTIKTNKPVCLKFTF | not soluble
MGSDKIHHHHHHALGGCGLVPKQPITQQPMTALPPMPPQAQSPGSIFNPGYAGRPLFEDQRPRNVGDILTIVIQENVNATKSSGANANRSGNTNFNVPTAGFLGGLFGKTNLSATGANVFSGTGGANASNTFNGTITVTVTGVLPNGNLMVSGEKQMLINQGDEFVRFSGVVNPNTISNLNAVYSTQVADAKIEYSAKGYLNEAENMGWLQRFFLNVSPW | not soluble
MGSDKIHHHHHHALGVVDEVHAGKEIGLQIYSLSQELYKGDVAANLRKVKDMGYSKLELAGYGKGAIGGVPMMDFKKMAEDAGLKIISSHVNPVDTSISDPFKAMIFKYSKEVTPKIMEYWKATAADHAKLGCKYLIQPMMPTITTHDEAKLVCDIFNQASDVIKAEGIATGFGYHNHNMEFNRVATKEQQEKVKGNPFAAFMKVGDQIYDLMLKDTDPSKVYFEMDVYWTVMGQNDPVEYMQKHPDRIKVLHIKDRAVFGQSGMMNFEMIFKQMYANGIKDYFVELEQMPDGRTQFAGVKDCADYLIKAPFVK | not soluble
MGSDKIHHHHHHAPPTFPEVKKIHAHRLSDELLISYPLDMAVSEDYIFILALADNAWLQVYDKTTGQLLGSFVTRGQGPGEATTANMCYYNAREKKISVYDESSMKLLTYRFDKDADNWGALIEERSFYDLGGTVRRVWELRNGRFLVDGQLGTKSDQQKRFQMLADAKVVADYNDFPIDTPKERSVWSSPAIAISPDCKKMAVGTLYGGILELFDLSQNIELRAIRKFYPPVVQYLSGTIQNTEETVWGFSALCVTDERIYSVFIGDKNPNLFNNLSVFDWDGRELIKYNTDCLVLRICASTQEPNKLYGIAFSETHEFYLVSFSLGS | not soluble
MGSDKIHHHHHHAQLVERVCRTDYKISPERKGELLLELDNISFFKDNEFAGTVIKGYSLPGLWIQPKFVYYPLKNIKLEGGVHMLWFSGAYRYPSVSYQDIALWKGEQYQKGAHLLPFFRAQISMKSVDLILGNIYGGSNHGLIAPLYNPELNLTADPETGFQVLAGAPWIDLDAWIDWQSFIFRDDTHQEAFTVGLSTRFKLNAPSSTFHCYIPLQILAQHRGGEIDTIRESSVQTLMNGAVGAGVTWNIDRRILKRVNVELDAAGYYQQKGELWPYHKGIGVYSSAFVDLGNFRVKMGHWICNDFITMFGIPYFGTVSTKKEGITYDKPQTLFCSIEYSRMFGKHYALGLKADAYQFFPGTMRSANGELTSPGSTTSFSVGVYFRINPSFLLKKF | not soluble
MGSDKIHHHHHHAQSLKDLLNKDNISKVVNAITGTPETIDMTGTWTYSGSAVEFESDNLLMKAGGAAAATMAENKLNEQLSKVGIKEGQMSFTFNADSTFTSTVGKKKLSGTYSYNASTKQVDLKYLKLLNLHAKVNCTSNSMDLLFNSDKLLKLMTFLGSKTNSTALKTVSSLAENYDGMMLGFGLKK | not soluble
MGSDKIHHHHHHARRNSTSRGSDSAARSPPSIRASHLKHCCFPIKEPTMSTINYSEKIPNNVNLADDRTLQRALEQWQPNFLSWWGDMGPDGSHGYDVYLRTAVSVDAGGWAHFDHVKMPDYRWGIFLTPGEQDRKIQFGEHKGEAAWQDVPGEHRANLRRIIVTQGDTEPASVEQQRHLGLTAPSMYDLRNLFQVNVEEGRHLWAMVYLLHRYFGRDGREEAEALLGRRSGDDDNPRILGAFNEKTPDWLAFYMFTYFTDRDGKFQLSALAESGFDPLARTTKFMLTEEAHHMFVGESGVSRVVQRTAQVMNELKTDDVNQIRAAGVIDLPTIQRYLNFHYSVTIDLFGADHSSNAATFYSSGLKGRYEETKRDDDHQLGGQSYKLLDVQDGKLVEREVPMLNAMNEVLRDDYIKDSVAGVNRWNKVLEKAGIEFRLTVPHKAFNRQIGTFAGTRVAPDGRVVSETEWAANEAKWLATPEDRAYVASLMGRVVEPGKFANWIAPPAMGINRQPIDFEYVRFN | not soluble
